{
  "source": "paper PMC7610862",
  "about": "(Nature microbiology, 2021)",
  "binders": {"B1": {"name": "FlgB (natural protein, Salmonella enterica serovar Typhimurium, UniProt P16437 1-138, looked up)", "chain": "MLDRLDAALRFQQEALNLRAQRQEILAANIANADTPGYQARDIDFASELKKVMVRGREETGGVALTLTSSHHIPAQAVSSPAVDLLYRVPDQPSLDGNTVDMDRERTQFADNSLKYQMGLTVLGSQLKGMMNVLQGGN"}, "B2": {"name": "FlgF (natural protein, Salmonella enterica serovar Typhimurium, UniProt P16323 1-251, looked up)", "chain": "MDHAIYTAMGAASQTLNQQAVTASNLANASTPGFRAQLNALRAVPVDGLSLATRTLVTASTPGADMTPGQLDYTSRPLDVALQQDGWLVVQAADGAEGYTRNGNIQVGPTGQLTIQGHPVIGEGGPITVPEGSEITIAADGTISALNPGDPPNTVAPVGRLKLVKAEGNEVQRSDDGLFRLTAEAQAERGAVLAADPSIRIMSGVLEGSNVKPVEAMTDMIANARRFEMQMKVITSVDENEGRANQLLSMS"}, "B3": {"name": "FlgG (natural protein, Salmonella enterica serovar Typhimurium, UniProt P0A1J3 1-260, looked up)", "chain": "MISSLWIAKTGLDAQQTNMDVIANNLANVSTNGFKRQRAVFEDLLYQTIRQPGAQSSEQTTLPSGLQIGTGVRPVATERLHSQGNLSQTNNSKDVAIKGQGFFQVMLPDGTSAYTRDGSFQVDQNGQLVTAGGFQVQPAITIPANALSITIGRDGVVSVTQQGQAAPVQVGQLNLTTFMNDTGLESIGENLYIETQSSGAPNESTPGLNGAGLLYQGYVETSNVNVAEELVNMIQVQRAYEINSKAVSTTDQMLQKLTQL"}, "B4": {"name": "FliF (natural protein, Salmonella enterica serovar Typhimurium, UniProt P15928 1-560, looked up)", "chain": "MSATASTATQPKPLEWLNRLRANPRIPLIVAGSAAVAIVVAMVLWAKTPDYRTLFSNLSDQDGGAIVAQLTQMNIPYRFANGSGAIEVPADKVHELRLRLAQQGLPKGGAVGFELLDQEKFGISQFSEQVNYQRALEGELARTIETLGPVKSARVHLAMPKPSLFVREQKSPSASVTVTLEPGRALDEGQISAVVHLVSSAVAGLPPGNVTLVDQSGHLLTQSNTSGRDLNDAQLKFANDVESRIQRRIEAILSPIVGNGNVHAQVTAQLDFANKEQTEEHYSPNGDASKATLRSRQLNISEQVGAGYPGGVPGALSNQPAPPNEAPIATPPTNQQNAQNTPQTSTSTNSNSAGPRSTQRNETSNYEVDRTIRHTKMNVGDIERLSVAVVVNYKTLADGKPLPLTADQMKQIEDLTREAMGFSDKRGDTLNVVNSPFSAVDNTGGELPFWQQQSFIDQLLAAGRWLLVLVVAWILWRKAVRPQLTRRVEEAKAAQEQAQVRQETEEAVEVRLSKDEQLQQRRANQRLGAEVMSQRIREMSDNDPRVVALVIRQWMSNDHE"}, "B5": {"name": "FlgI (natural protein, Salmonella enterica serovar Typhimurium, UniProt P15930 20-365, looked up)", "chain": "ERIRDLTSVQGVRENSLIGYGLVVGLDGTGDQTTQTPFTTQTLNNMLSQLGITVPTGTNMQLKNVAAVMVTASYPPFARQGQTIDVVVSSMGNAKSLRGGTLLMTPLKGVDSQVYALAQGNILVGGAGASAGGSSVQVNQLNGGRITNGAIIERELPTQFGAGNTINLQLNDEDFTMAQQITDAINRARGYGSATALDARTVQVRVPSGNSSQVRFLADIQNMEVNVTPQDAKVVINSRTGSVVMNREVTLDSCAVAQGNLSVTVNRQLNVNQPNTPFGGGQTVVTPQTQIDLRQSGGSLQSVRSSANLNSVVRALNALGATPMDLMSILQSMQSAGCLRAKLEII"}},
  "test_in_all_cases": "cryo-EM structure",
  "key": {"FlgI": {"target": "B5"}, "cryo-EM structure": {"target": "the molecule itself"}, "FliF": {"target": "B4"}, "FlgB": {"target": "B1"}, "FlgF": {"target": "B2"}, "FlgG": {"target": "B3"}, "FliP": {"target": "T1, FliP (Salmonella enterica serovar Typhimurium, UniProt P54700 22-245)", "T1 sequence (looked up)": "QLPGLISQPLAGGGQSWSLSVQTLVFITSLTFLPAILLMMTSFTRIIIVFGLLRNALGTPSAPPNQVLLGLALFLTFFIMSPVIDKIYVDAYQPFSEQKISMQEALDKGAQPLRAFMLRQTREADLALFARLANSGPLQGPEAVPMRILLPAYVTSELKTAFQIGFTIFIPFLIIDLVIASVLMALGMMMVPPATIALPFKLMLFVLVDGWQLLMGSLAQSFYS"}},
  "data": [
    {"binder": "FlgH (natural protein, Salmonella enterica serovar Typhimurium, UniProt P0A1N8 22-232, looked up, lipidated N-terminal Cys (3 lipid moieties; diacylglycerol attached to the sidechain)) CAWIPAKPLVQGATTAQPIPGPVPVANGSIFQSAQPINYGYQPLFEDRRPRNIGDTLTIVLQENVSASKSSSANASRDGKTSFGFDTVPRYLQGLFGNSRADMEASGGNSFNGKGGANASNTFSGTLTVTVDQVLANGNLHVVGEKQIAINQGTEFIRFSGVVNPRTISGSNSVPSTQVADARIEYVGNGYINEAQNMGWLQRFFLNLSPM", "values": [
      {"measurement": "binding result", "setting": "FlgI", "result": "binds"},
      {"measurement": "stoichiometry N", "setting": "cryo-EM structure", "result": 26, "unit": "copies"}
    ]},
    {"binder": "B1", "values": [
      {"measurement": "binding result", "setting": "FliF", "result": "binds"},
      {"measurement": "stoichiometry N", "setting": "cryo-EM structure", "result": 5, "unit": "copies"}
    ]},
    {"binder": "FlgC (natural protein, Salmonella enterica serovar Typhimurium, UniProt P0A1I7 1-134, looked up) MALLNIFDIAGSALAAQSKRLNVAASNLANADSVTGPDGQPYRAKQVVFQVDAAPGQATGGVKVASVIESQAPEKLVYEPGNPLADANGYVKMPNVDVVGEMVNTMSASRSYQANIEVLNTVKSMMLKTLTLGQ", "values": [
      {"measurement": "binding result", "setting": "FliF", "result": "binds"},
      {"measurement": "binding result", "setting": "FlgB", "result": "binds"},
      {"measurement": "binding result", "setting": "FlgF", "result": "binds"},
      {"measurement": "stoichiometry N", "setting": "cryo-EM structure", "result": 6, "unit": "copies"}
    ]},
    {"binder": "B2", "values": [
      {"measurement": "binding result", "setting": "FliF", "result": "binds"},
      {"measurement": "binding result", "setting": "FlgG", "result": "binds"},
      {"measurement": "stoichiometry N", "setting": "cryo-EM structure", "result": 5, "unit": "copies"}
    ]},
    {"binder": "B3", "values": [
      {"measurement": "binding result", "setting": "FlgI", "result": "binds"},
      {"measurement": "stoichiometry N", "setting": "cryo-EM structure", "result": 24, "unit": "copies"}
    ]},
    {"binder": "B4", "values": [
      {"measurement": "stoichiometry N", "setting": "cryo-EM structure", "result": 34}
    ]},
    {"binder": "B5", "values": [
      {"measurement": "stoichiometry N", "setting": "cryo-EM structure", "result": 26, "unit": "copies"}
    ]},
    {"binder": "FlgD (natural protein, Salmonella enterica serovar Typhimurium, UniProt P0A1I9 1-232, looked up) MSIAVNMNDPTNTGVKTTTGSGSMTGSNAADLQSSFLTLLVAQLKNQDPTNPLQNNELTTQLAQISTVSGIEKLNTTLGAISGQIDNSQSLQATTLIGHGVMVPGTTILAGKGAEEGAVTSTTPFGVELQQPADKVTATITDKDGRVVRTLEIGELRAGVHTFTWDGKQTDGTTVPNGSYNIAITASNGGTQLVAQPLQFALVQGVTKGSNGNLLDLGTYGTTTLDEVRQII", "values": [
      {"measurement": "binding result", "setting": "FlgG", "result": "binds"},
      {"measurement": "stoichiometry N", "setting": "cryo-EM structure", "result": 5}
    ]},
    {"binder": "FliE (natural protein, Salmonella enterica serovar Typhimurium, UniProt P26462 1-104, looked up) MAAIQGIEGVISQLQATAMAARGQDTHSQSTVSFAGQLHAALDRISDRQAAARVQAEKFTLGEPGIALNDVMADMQKASVSMQMGIQVRNKLVAAYQEVMSMQV", "values": [
      {"measurement": "binding result", "setting": "FliP", "result": "binds"},
      {"measurement": "binding result", "setting": "FlgB", "result": "binds"}
    ]}
  ]
}
